Consider 19 molecules from patent US20100261660A1 (published 2010).

First the molecules themselves.
B1: Round 2 CTLA4BP 2x2-f3 (ligand)
chain: VIYVTKEVKEVATLSCGHNVSVEELAQTRIYWQKEKKMVLIMMSGDMNIWPEYKNRTIFDITNNLSIVILALRPSDEGTECVVLKYEKDAFKREHLAEVTLSVKADFPTPSISDFEIPPSNIRRIICSTSGGFPEPHLSWLENGEELNAINTTVSQDPGTELYTVSSKLDFNMTTNHSFMCLIKYGHLRVNQTFNWNTPKQEHFPDNLLPSWAITLISVNGIFVICCLTYCFAPRCRERRRNERLRRESVCPV
B2: Round 2 CTLA4BP 2x1-c9 (ligand)
chain: VIHVTKEVKEVATLSCGHNVSAEELAQTRIYWQKEKKMVLTMMSGDMNIWPEYKNRTIFDITNNLSIVILALRPSDEGTYECVVLEYEKDAFKREHLAEVMLSVKADFPTPSITDFEIPTSNIRRIICSTSGGFPEPRLAWMEDGEELNAISTTASQDPETELYTVSSKLDFNMTTNHSFMCLIKYGHLRVNQTFNWNTPKQEHFPDNLLPSWAITLISVNGIFVICCLTHCFAPRCRERRRNERLRRESVCPV
B3: Round 2 CTLA4BP 2x1-e2 (ligand)
chain: VIHVTKEVKEVATLSCGHNVSDEELAQTRIHWQKEKKMVLTMMSGDMNIWPEYKNRTIFDITNNLSIVILALRPSDEGTYECVVLKYEKDAFKREHLAEVTLSVKADFPTPSISDFEIPPSNIRRIICSTSGGFPEPHLSWLENGEELNAINTTVSQDPGTELYTVSSKLDFNMTTNHSFMCLIKYGHLRVNQTFNWNTPKQEHFPDNLLPSAITLISANGIFVICCLTYCFAPRCRERRRNERLRRESIHPV
B4: Round 2 CTLA4BP 2x4-g9 (ligand)
chain: VIHVTKEVKEVATLSCGHNVSVEELAQTRIYWQKDKKMVLTMMSGDMNIWPEYKNQTIFDITNNLSIVILALRPSDEGTYECVVLKYEKDAFKQEHLAEVMLSVKADFPTPSISDFEIPPSNIRRIICSTSGGFPEPRLAWMEDGEELNAISTTVSQDPGTELCTVSSKLDFNMTTNHSFMCLIRYGHLRVNQTFNWNTPKQEHFPDNLLPSWAITLISVKGIFVICCLTYCFAPRGRERKSNGRLRRESVHPV
B5: Round 2 CTLA4BP 2x3-h2 (ligand)
chain: VIHVTKEVKEVATLSCGHNVSVEELAQTRIYWQKEKKMVLTMMSGDMNIWPEYKNRTIFDITNNLSIVILALRPSDEGTYECVVLKYEKDAFKREHLAEVMLSVKADFPTPSISDFEIPPSNIRRIICSTPGGFPEPRLAWMEDGEELNAISTTVSQDPGTELYAVSSKLDFNMTTNHSFMCLIKYGHLRVNQTFNWNTTKQEHFPDNLLPSWAITLISVKGIFVICCLTYCFAPRWRERKSNERLRRESVRPV
B6: Round 2 CTLA4BP-5x2-4c (ligand)
chain: VIHVTKEVKEVATLSCGLNVSVEELAQTRIYWQKEKKMVLTMMSGDMNIWPEYKNRTIFDITNNLSIVILALRPSDEGTYECVVLEYEKDAFKREHLAEVMLSVKADFPTPSISDFEIPPSNIRRIICSTSGGFPEPHLSWLENGEELNGINTTVSQDPETELYTVSSKLDFNMTTNRSFVCLIKYGHLRVNQTFNWNTPKQEHFPDNLLPSWAITLISVNGIFVICCLTYCFAPRCRERRRNERLRRESVHPV
B7: Round 2 CTLA4BP-5x2-8c (ligand)
chain: VIHMTKEVKEVATLSCGHNVSVEELAQTRIYWQKEKKMVLTMMSGDMNIWPEYKNRTIFDITNNLSIVILALRPSDEGTYECVVLKYEKDAFKQEHLAEVMLSVKADFPTPSITDFEIPPSNIRRIICSTSGGFPEPHLFWLENGEELNAINTTVSQDPETELYAVSSKLDFNMTTNHSFVCLIKYGHLRVNQTFNWNTPKQEHFPDNLLPSWAITLISANGIFVICCLTYCFAPRCRERRRNERLRRESVHPV
B8: Round 2 CTLA4BP-5x3-10e (ligand)
chain: VIHVTKEVKEVATLSCGHNVSVEELAQTRIYWQKEKKMVLTMMSGDMNIWPEYKNRTIFDITNNLSIVILALRPSDEGTYECVVLEYEKDAFKREHLAEVTLSVKADFPTPSISDFEIPPSNIRRIICSTSGGFPEPHLFWLENGEELNAINTTVSQDPETELYAVSSKLDFNMTTNHSFMCLIKYGHLRVNQTFNWNTPKQEHFPDNLLPSWAITLISANGIFVICCLTYCFAPRCRERKSNERLRRESVHPV
B9: Round 2 CTLA4BP-5x5-6e (ligand)
chain: VIHVTKEVKEVATLSCGHNVSVEELAQTRIHWQKEKKMVLTMMSGDMNIWPEYKNRTIFDITNNLSIVILALRPSDEGTYECVVLKYEKDAFKREHLAEVMLSVKADFPTPSITDFEIPPSNIRRIICSTSGGFPEPHLSWLENGEELNAISTTVSQDPETELYTVSSKLDFNMTTNHSFMCLIKYGHLRVNQTFNWNTTKQEHFPDNLLPSWAITLISANGIFVICCLTHCFAPRCRERKRNERLRRESVRPV
B10: Round 2 CTLA4BP-5x4-12c (ligand)
chain: VIHVTKEVKEVATLSCGHNVSVEELAQTRIHWQKEKKMVLTMMSGDMNIWPEYKNRTIFDITNNLSIVILALRPSDEGTYECVVLKYEKDAFKREHLAEVMLSVKADFPTPSISDFEIPPSNIRRIICSTSGGFPEPHLFWLENGEELNAINTTVSQDPETELYTVSSKLDFNMTTNHSFMCLIKYGHLRVNQTFNWNTPKQEHFPDNLLPSWAITLISANGIFVICCLTYRFAPRCRERKSNETLRRESVRPV
notes: residues 1-34 left out as the signal peptide; also called CTLA-4BP 5×4-12c; clone R2 CTLA-4BP 5×4-12c
B11: Round 2 CTLA4BP-5x2-7b (ligand)
chain: VIHVTKEVKEVATLSCGHNVSVEELAQTRIHWQKEKKMVLTMMSGDMNIWPEYKNRTIFDITNNLSIVILALRPSDEGTYECVVLKYEKDAFKREHLAEVTLSVKAGFPTPSITDFEIPPSNIRRIICSTSGGFPEPHLSWLENGEELNAINTTVSQDPGTELYTVSSKLDFNMTANHSFVCLIKYGHLRVNQTFNWNTPKQEHFPDNLLPSWAITLISANGIFVICCLTYCFAPRCRERRRNERLRRESVRPV
B12: Round 2 CTLA4BP-5x6-9d (ligand)
chain: VIHVTKEVKEVATLSCGHNVSVEELAQTRIHWQKEKKMVLTMMSGDMNIWPEYKNRTIFDITNNLSIVILALRPSDEGTYECVVLKYEKDAFKREHLAEVMLSVKADFPTPSISDFEIPTSNIRRIICSTSGGFPEPHLSWLENGEELNAINTTVSQDPETELYTVSSKLDFNMTANHSFVCLIKYGHLRVNQTFNWNTPKQEHFPDNLLPSWAITLISVNGIFVICCLTYCFAPRCRERRRNERLRRESVRPV
B13: Round 2 CTLA4BP-5x9-12c (ligand)
chain: VIHVTKEVKEVATLSCGHNVSVEELAQTRIHWQKEKKMVLTMMSGDMNIWPEYKNRTIFDITNNLSIVILALRPSDEGTYECVVLKYEKDAFKREHLAEVMLSVKADFPTPSITDFEIPPSNIRRIICSTSGGFPEPHLSWLENGEELNAINTTASQDPETELYTVSSKLDFNMTTNHSFMCLIKYGHLRVNQTFNWNTPKQEHFPDNLLPSWAITLISVNGIFVICCLTYCFAPRCRERKSNERLRRESVRPV
B14: Round 2 CTLA4BP-5x5-2e (ligand)
chain: VIHVTKEVKEVATLSCGLNVSVEELAQTRIHWQKEKKMVLTMMSGDMNIWPEYKNRTIFDITNNLSIVILALRPSDEGTYECVVLKYEKDAFKREHLAEVMLSVKADFPTPSISDFEIPPSNIRRIICSTSGGFPEPHLSWLENGEELNAINTTVSQDPETELYAVSSKLDFNMTTNHSFMCLIKYGHLRVNQTFNWNTPKQEHFPDNLLPSWAITLISVNGIFVICCLTYCFAPRCRERRRNETLRRESVRPV
B15: Round 2 CTLA4BP-5x8-1f (ligand)
chain: VIHVTKEVKEVATLSCGHNVSVEELAQTRIHWQKEKKMVLTMMSGDMNIWPEYKNRTIFDITNNLSIVILALRPSDEGTYECVVLKYEKDAFKREHLAEVMLSVKADFPTPSITDFEIPPSNIRRIICSASGGFPEPHLFWLENGEELNAINTTVSQDPETELYAVSSKLDFNMTTNHSFMCLIRYGHLRVNQTFNWNTPKQEHFPDNLLPSWAITLISVNGIFVICCLTYCFAPRCRERKSNERLRRESVRPV
B16: Round 2 CTLA4BP-5x4-1f (ligand)
chain: VIHVTKEVKEVATLSCGHNVSVEELAQTRIHWQKEKKMVLTMMSGDMNIWPEYKNRTIFDITNNLSIVILALRPSDEGTYECVVLKYEKDAFKREHLAEVMLSVKADFPTPSISDFEIPTSNIRRIICSTSGGFPEPHLFWLENGEELNAINTTVSQDPETELYTVSSKLDFNMTTNHSFMCLIKYGHLRVNQTFNWNTPKQEHFPDNLLPSWAITLISVNGIFVICCLTYCFAPRCRERRRNERLRRESVCPV
B17: Round 2 CTLA4BP-5x3-6f (ligand)
chain: VIHVTKEVKEVATLSCGHNVSVEELAQTRIYWQKGKKMVLTMMSGDMNIWPEYKNRTIFDITNNLSIVILALRPSDEGTYECVVLEYEKDAFKREHLAEVMLSVKADFPTPSISDFEIPTSNIRRIICSTSGGFPEPHLSWLENGEELNAINTTASQDPETELYTVSSKLDFNMTTNHSFMCLIKYGHLRVNQTFNWNTPKQEHFPDNLLPSWAITLISANGIFVICCLAYCFAPGCRERKSNERLRRESVRPV
B18: Round 2 CTLA4BP-5x3-11b (ligand)
chain: VIHVTKEVKEVATLSCGHNVSVEELAQTRIYWQKEKKMVLTMMSGDMNIWPEYKNRTIFDITNNLSIVILALRSSDEGTYECVVLKYEKDAFKREHLAEVTLSVKADFPTPSITDFEIPPSNIRRIICSTSGGFPEPHLSWLENGEELNAISTTVSQDPETELYTVSSKLDFNMTTNRSFVCLIKYGHLRVNQTFNWNTPKQEHFPDNLLPSWAITLISVNGIFVICCLTYCFAPRCRERRSNERLRRESVRPV
B19: Round 2 CTLA4BP-5x4-11d (ligand)
chain: VIHVTKEVKEVATLSCGLNVSVEELAQTRIHWQKEKKMVLTMMSGDMNIWPEYKNRTIFDITNNLSIVILALRPSDEGTYECVVLKYDKDAFKREHLAEVTLSVKADFPTPSISDFEIPPSNIRRIICSTSGGFPEPHLSWLENGEELNAINTTVSQDPETELYTVSSKLDFNMTANHSFVCLIKYGHLRVNQTFNWNTPKQEHFPDNLLPSWAITLISVNGIFVICCLTYRFAPRCRERKSNERLRRESVRPV

In the assay the target is T1, Soluble CTLA-4-Ig (extracellular domain of human CTLA-4 fused to the Fc portion of human IgG1) (human, UniProt P16410 36-161, FITC-conjugated in the FACS binding assays).
T1 construct: extracellular domain; bought from R&D Systems; also called sCTLA-4-Ig; CTLA-4-Ig Fc; not shown: Fc portion of human IgG1
T1 sequence (P16410 36-161): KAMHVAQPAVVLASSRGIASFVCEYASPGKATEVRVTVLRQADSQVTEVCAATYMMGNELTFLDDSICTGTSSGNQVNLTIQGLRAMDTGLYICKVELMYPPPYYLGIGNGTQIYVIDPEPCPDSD
As to the kind of experiment: competitive FACS on transfected cells, FITC-sCTLA-4-Ig with biotin-sCD28-Ig; grade 0-2 of CTLA-4/CD28 ratio vs WT hB7-1.
With B1, the “Binding Score” value was 1. On to B2, for which the “Binding Score” value amounted to 1. Regarding B3, the “Binding Score” value came out at 1. As to B4, the “Binding Score” value was found to be 1. Then B5, with 0; and B6, with 1; and B7, with 2. Regarding B8, the “Binding Score” value was 2. Then B9, with 2. The value for B10 was 2. Turning to B11, the “Binding Score” value worked out at 1. With B12, the “Binding Score” value stood at 2. On to B13, for which the “Binding Score” value came out at 2. In the case of B14, the “Binding Score” value came out at 2. The value for B15 was 2. In the case of B16, the “Binding Score” value turned out to be 2. Regarding B17, the “Binding Score” value stood at 2.

Turning to B18, the “Binding Score” value was 1. As for B19, the “Binding Score” value is 2.
